{
  "source": "paper PMC12568027",
  "target": "HIV-2 GL-AN CA P14C/E45C/W184A/M185A (HIV-2 GL-AN)",
  "data": [
    {"substance": "HIV-2 GL-AN CA P14C/E45C/W184A/M185A (natural protein)", "values": [
      {"measurement": "stoichiometry N", "value": 6}
    ]}
  ]
}
